Test results reported in publication PMC9907207.

Target: D614G VFLIP spike trimer (SARS-CoV-2)
Test: cryo-EM structure

Substance “D614G VFLIP spike trimer (natural protein)” has a stoichiometry N of 3.
